Results reported in US20230250167A1 (published 2023).

Target: T1, human ILT7 expressed on transfected cells (human, UniProt P59901 24-499)
T1 construct: whole, on cells; also called LILRA4; LIRA4
Test: FMAT cell binding, CHO cells expressing human ILT7
Source text: This homogeneous assay assessed the binding of crude scFv supernatant samples or purified IgG to Chinese Hamster Ovary (CHO) cells expressing either human or cynomolgus ILT7 in a 384-well (Costar 3655) format. ScFv or Ab binding to cells was detected using a mouse anti-His/goat anti-mouse Alexafluor®-647 labelled antibody (Molecular Probes A21236) mix, or goat anti-human Alexafluor®-647 labelled antibody (Molecular Probes A21445) respectively. Plates were read on the Applied Biosystems Cellular Detection system 8200 reader. The Helium neon excitation laser was focused within 100 μm depth of the bottom of the well, scanning an area 1 mm². The cells settled at the bottom of the well, and upon laser excitation at 633 nm, those beads with fluorophore bound (where the local concentration of fluorophore is relatively high compared to unbound fluorophore) emitted a signal at 650-685 nm that was measured using photomultiplier tube-1 (PMT1). […] The presence of scFv or IgG samples binding to the cells at the bottom of the well caused an increase in Alexafluor-labeled detection antibody within the excitation depth. This was measured as an increase in fluorescence.
Species cross-reactivity of anti-ILT7 antibodies was determined using FMAT binding assay. The detailed assay method is provided in the Materials and Methods section. […]

T1 sequence (P59901 24-499): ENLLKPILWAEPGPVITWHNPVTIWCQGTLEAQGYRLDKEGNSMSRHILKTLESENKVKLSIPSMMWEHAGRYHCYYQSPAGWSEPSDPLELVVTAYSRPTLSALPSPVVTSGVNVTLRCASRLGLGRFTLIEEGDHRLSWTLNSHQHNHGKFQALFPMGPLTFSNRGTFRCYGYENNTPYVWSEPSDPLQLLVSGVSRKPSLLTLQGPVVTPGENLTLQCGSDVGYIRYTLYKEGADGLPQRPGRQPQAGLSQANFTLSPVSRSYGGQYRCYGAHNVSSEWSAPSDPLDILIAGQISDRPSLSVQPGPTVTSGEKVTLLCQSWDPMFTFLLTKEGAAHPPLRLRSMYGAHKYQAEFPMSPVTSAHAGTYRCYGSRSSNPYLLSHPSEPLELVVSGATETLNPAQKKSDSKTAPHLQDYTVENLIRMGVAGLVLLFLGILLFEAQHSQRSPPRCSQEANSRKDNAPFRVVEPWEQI

B1: ILT70100 (antibody, V domains shown)
VH: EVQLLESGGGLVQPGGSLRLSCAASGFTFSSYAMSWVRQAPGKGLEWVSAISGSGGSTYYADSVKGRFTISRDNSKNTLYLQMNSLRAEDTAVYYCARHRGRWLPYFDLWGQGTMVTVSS
VL: DIQLTQSPSSLSASVGERVTITCQASQDIRSYLNWYQQKPGKAPKLLIYDVSNLETGVPSRFSGSGSGTEYTFSISSLQPEDFATYYCQQYDKAPLTFGGGTKVEIK
**Q.** Does B1 bind?
**A.** binds

B2: ILT70052 (antibody, V domains shown)
VH: EVQLVESGGGLVKPGGSLRLSCEASGFTFTDYYMNWIRQAPGKGLEWISYISPGGTTVYYADSVKGRFTISRDNAKNSLYLQMNSLRVEDTAVYYCARDISGYGDWFDPWGKGTLVTVSS
VL: QSVVTQPPSASGTPGQRVTISCSGSSSNIGSNTVNWYQLLPATAPRILIYNNNQRPSGVPDRFAGSKSGTSASLAISGLQSEDEADYYCGAWDDSLNSPVFGGGTKLTVL
**Q.** Does B2 bind?
**A.** binds
